Molecular target: T1, PUF4 RNA-binding domain (Saccharomyces cerevisiae, UniProt P25339 537-888)
T1 sequence: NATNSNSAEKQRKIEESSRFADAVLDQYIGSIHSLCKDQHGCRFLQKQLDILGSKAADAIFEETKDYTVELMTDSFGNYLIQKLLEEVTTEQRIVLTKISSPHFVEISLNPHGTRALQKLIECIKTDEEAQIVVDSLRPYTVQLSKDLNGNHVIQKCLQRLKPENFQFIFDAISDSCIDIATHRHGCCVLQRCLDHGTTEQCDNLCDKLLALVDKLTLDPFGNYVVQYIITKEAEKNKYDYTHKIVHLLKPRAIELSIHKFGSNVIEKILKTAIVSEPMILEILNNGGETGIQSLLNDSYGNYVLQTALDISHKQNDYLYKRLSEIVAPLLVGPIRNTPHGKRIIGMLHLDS
Experiment: Mg; RNA-MaP; 20 mM Na-HEPES pH 7.4, 30 mM KOAc, 0.75 mM MgCl2, 0.1% Tween-20, 5% glycerol, 0.1 mg/mL BSA, 2 mM DTT; 25 C; 0.0125-409.6 nM protein
Conditions: tags: N-His6-TEV cleaved; C-SNAP kept, Cy3B-labelled; label: tethered on chip by stalled RNA polymerase

Binder: UCUCUUUGUAUGCAUCUCUU (ssRNA) [Ic_S1_P3E.1_K3.1_C3.1_H3.1_A3.1_[A6G]_F3.1_[T7C]_T3.1]
- Kd: 1280 nM

Binder: UCUCUUUGUAUCUCGUCUCUU (ssRNA) [Ic_S1_P4E.1_K4.1_C4.1_H4.1_A4.1_[A6C]_F4.1_[T8C]_[A9G]_T4.1]
- Kd: 382 nM

Binder: UCUCUUUGUAUCUGUUCUCUU (ssRNA) [Ic_S1_P4E.1_K4.1_C4.1_H4.1_A4.1_[A6C]_F4.1_[T8G]_[A9T]_T4.1]
- Kd: 58.6 nM

Binder: UCUCUUUGUAUCGGCUCUCUU (ssRNA) [Ic_S1_P4E.1_K4.1_C4.1_H4.1_A4.1_[A6C]_[T7G]_F4.1_[T8G]_[A9C]_T4.1]
- Kd: 2020 nM

Binder: UCUCUUUGUAUUGCUUCUCUU (ssRNA) [Ic_S1_P4E.1_K4.1_C4.1_H4.1_A4.1_[A6T]_[T7G]_F4.1_[T8C]_[A9T]_T4.1]
- Kd: 443 nM

Binder: UCUCUUUGUAUCCAUUCUCUU (ssRNA) [Ic_S1_P4E.1_K4.1_C4.1_H4.1_A4.1_[A6C]_[T7C]_F4.1_[T8A]_[A9T]_T4.1]
- Kd: 362 nM

Binder: UCUCUUUGUAUCCAGUCUCUU (ssRNA) [Ic_S1_P4E.1_K4.1_C4.1_H4.1_A4.1_[A6C]_[T7C]_F4.1_[T8A]_[A9G]_T4.1]
- Kd: 2020 nM

Binder: UCUCUUUGUAUCCUUUCUCUU (ssRNA) [Ic_S1_P4E.1_K4.1_C4.1_H4.1_A4.1_[A6C]_[T7C]_F4.1_[A9T]_T4.1]
- Kd: 44.9 nM

Binder: UCUCUUUGUAUCCACUCUCUU (ssRNA) [Ic_S1_P4E.1_K4.1_C4.1_H4.1_A4.1_[A6C]_[T7C]_F4.1_[T8A]_[A9C]_T4.1]
- Kd: 981 nM

Binder: UCUCUUUGUAUCAACUCUCUU (ssRNA) [Ic_S1_P4E.1_K4.1_C4.1_H4.1_A4.1_[A6C]_[T7A]_F4.1_[T8A]_[A9C]_T4.1]
- Kd: 508 nM

Binder: UCUCUUUGUAUUCCCUCUCUU (ssRNA) [Ic_S1_P4E.1_K4.1_C4.1_H4.1_A4.1_[A6T]_[T7C]_F4.1_[T8C]_[A9C]_T4.1]
- Kd: 505 nM

Binder: UCUCUUUGUAUUGUUUCUCUU (ssRNA) [Ic_S1_P4E.1_K4.1_C4.1_H4.1_A4.1_[A6T]_[T7G]_F4.1_[A9T]_T4.1]
- Kd: 33.6 nM

Binder: UCUCUUUGUAUUGCCUCUCUU (ssRNA) [Ic_S1_P4E.1_K4.1_C4.1_H4.1_A4.1_[A6T]_[T7G]_F4.1_[T8C]_[A9C]_T4.1]
- Kd: 943 nM

Binder: UCUCUUUGUAUUAGCUCUCUU (ssRNA) [Ic_S1_P4E.1_K4.1_C4.1_H4.1_A4.1_[A6T]_[T7A]_F4.1_[T8G]_[A9C]_T4.1]
- Kd: 530 nM

Binder: UCUCUUUGUAUCGCUUCUCUU (ssRNA) [Ic_S1_P4E.1_K4.1_C4.1_H4.1_A4.1_[A6C]_[T7G]_F4.1_[T8C]_[A9T]_T4.1]
- Kd: 682 nM

Binder: UCUCUUUGUAUCUCUUCUCUU (ssRNA) [Ic_S1_P4E.1_K4.1_C4.1_H4.1_A4.1_[A6C]_F4.1_[T8C]_[A9T]_T4.1]
- Kd: 522 nM

Binder: UCUCUUUGUAUUGGCUCUCUU (ssRNA) [Ic_S1_P4E.1_K4.1_C4.1_H4.1_A4.1_[A6T]_[T7G]_F4.1_[T8G]_[A9C]_T4.1]
- Kd: 1330 nM

Binder: UCUCUUUGUAUUAGUUCUCUU (ssRNA) [Ic_S1_P4E.1_K4.1_C4.1_H4.1_A4.1_[A6T]_[T7A]_F4.1_[T8G]_[A9T]_T4.1]
- Kd: 431 nM

Binder: UCUCUUUGUAUCGUGUCUCUU (ssRNA) [Ic_S1_P4E.1_K4.1_C4.1_H4.1_A4.1_[A6C]_[T7G]_F4.1_[A9G]_T4.1]
- Kd: 432 nM

Binder: UCUCUUUGUAUCAUCUCUCUU (ssRNA) [Ic_S1_P4E.1_K4.1_C4.1_H4.1_A4.1_[A6C]_[T7A]_F4.1_[A9C]_T4.1]
- Kd: 17.6 nM

Binder: UCUCUUUGUAUUAAUCUCUU (ssRNA) [Ib_S1_P3E.1_K3.1_C3.1_H3.1_A3.1_[A6T]_F3.1_[T7A]_T3.1]
- Kd: 312 nM

Binder: UCUCUUUGUAUUGCAUCUCUU (ssRNA) [Ic_S1_P4E.1_K4.1_C4.1_H4.1_A4.1_[A6T]_[T7G]_F4.1_[T8C]_T4.1]
- Kd: 365 nM

Binder: UCUCUUUGUAUCAUUUCUCUU (ssRNA) [Ic_S1_P4E.1_K4.1_C4.1_H4.1_A4.1_[A6C]_[T7A]_F4.1_[A9T]_T4.1]
- Kd: 11.2 nM

Binder: UCUCUUUGUAUCAAUUCUCUU (ssRNA) [Ic_S1_P4E.1_K4.1_C4.1_H4.1_A4.1_[A6C]_[T7A]_F4.1_[T8A]_[A9T]_T4.1]
- Kd: 91.5 nM

Binder: UCUCUUUGUACAUGUCUCUU (ssRNA) [Ic_S1_P3E.1_K3.1_C3.1_H3.1_A3.1_[T5C]_F3.1_[A8G]_T3.1]
- Kd: 21.8 nM

Binder: UCUCUUUGUAUCACAUCUCUU (ssRNA) [Ic_S1_P4E.1_K4.1_C4.1_H4.1_A4.1_[A6C]_[T7A]_F4.1_[T8C]_T4.1]
- Kd: 74.8 nM

Binder: UCUCUUUGUAUCUACUCUCUU (ssRNA) [Ic_S1_P4E.1_K4.1_C4.1_H4.1_A4.1_[A6C]_F4.1_[T8A]_[A9C]_T4.1]
- Kd: 28.9 nM

Binder: UCUCUUUGUAUUCGAUCUCUU (ssRNA) [Ic_S1_P4E.1_K4.1_C4.1_H4.1_A4.1_[A6T]_[T7C]_F4.1_[T8G]_T4.1]
- Kd: 753 nM

Binder: UCUCUUUGUAUCCCGUCUCUU (ssRNA) [Ic_S1_P4E.1_K4.1_C4.1_H4.1_A4.1_[A6C]_[T7C]_F4.1_[T8C]_[A9G]_T4.1]
- Kd: > 2300 nM

Binder: UCUCUUUGUAUUCGCUCUCUU (ssRNA) [Ic_S1_P4E.1_K4.1_C4.1_H4.1_A4.1_[A6T]_[T7C]_F4.1_[T8G]_[A9C]_T4.1]
- Kd: 1060 nM

Binder: UCUCUUUGUAUUCAUCUCUU (ssRNA) [Ib_S1_P3E.1_K3.1_C3.1_H3.1_A3.1_[A6T]_F3.1_[T7C]_T3.1]
- Kd: 296 nM

Binder: UCUCUUUGUAUCGUUUCUCUU (ssRNA) [Ic_S1_P4E.1_K4.1_C4.1_H4.1_A4.1_[A6C]_[T7G]_F4.1_[A9T]_T4.1]
- Kd: 328 nM

Binder: UCUCUUUGUAUCGAUCUCUU (ssRNA) [Ib_S1_P3E.1_K3.1_C3.1_H3.1_A3.1_[A6C]_F3.1_[T7G]_T3.1]
- Kd: 1020 nM

Binder: UCUCUUUGUAUCCCAUCUCUU (ssRNA) [Ic_S1_P4E.1_K4.1_C4.1_H4.1_A4.1_[A6C]_[T7C]_F4.1_[T8C]_T4.1]
- Kd: 709 nM

Binder: UCUCUUUGUAUUGGUUCUCUU (ssRNA) [Ic_S1_P4E.1_K4.1_C4.1_H4.1_A4.1_[A6T]_[T7G]_F4.1_[T8G]_[A9T]_T4.1]
- Kd: 500 nM

Binder: UCUCUUUGUAUCCUGUCUCUU (ssRNA) [Ic_S1_P4E.1_K4.1_C4.1_H4.1_A4.1_[A6C]_[T7C]_F4.1_[A9G]_T4.1]
- Kd: 82.6 nM

Binder: UCUCUUUGUAUCAAUCUCUU (ssRNA) [Ic_S1_P3E.1_K3.1_C3.1_H3.1_A3.1_[A6C]_F3.1_[T7A]_T3.1]
- Kd: 108 nM

Binder: UCUCUUUGUAUCAUGUCUCUU (ssRNA) [Ic_S1_P4E.1_K4.1_C4.1_H4.1_A4.1_[A6C]_[T7A]_F4.1_[A9G]_T4.1]
- Kd: 8.82 nM

Binder: UCUCUUUGUAUCUAGUCUCUU (ssRNA) [Ic_S1_P4E.1_K4.1_C4.1_H4.1_A4.1_[A6C]_F4.1_[T8A]_[A9G]_T4.1]
- Kd: 43.8 nM

Binder: UCUCUUUGUAUUCCAUCUCUU (ssRNA) [Ic_S1_P4E.1_K4.1_C4.1_H4.1_A4.1_[A6T]_[T7C]_F4.1_[T8C]_T4.1]
- Kd: 454 nM

Binder: UCUCUUUGUAUUCAUUCUCUU (ssRNA) [Ic_S1_P4E.1_K4.1_C4.1_H4.1_A4.1_[A6T]_[T7C]_F4.1_[T8A]_[A9T]_T4.1]
- Kd: 141 nM

Binder: UCUCUUUGUAUUCGGUCUCUU (ssRNA) [Ic_S1_P4E.1_K4.1_C4.1_H4.1_A4.1_[A6T]_[T7C]_F4.1_[T8G]_[A9G]_T4.1]
- Kd: > 2300 nM

Binder: UCUCUUUGUAUCACCUCUCUU (ssRNA) [Ic_S1_P4E.1_K4.1_C4.1_H4.1_A4.1_[A6C]_[T7A]_F4.1_[T8C]_[A9C]_T4.1]
- Kd: 432 nM

Binder: UCUCUUUGUAUCCCCUCUCUU (ssRNA) [Ic_S1_P4E.1_K4.1_C4.1_H4.1_A4.1_[A6C]_[T7C]_F4.1_[T8C]_[A9C]_T4.1]
- Kd: 1020 nM

Binder: UCUCUUUGUAUCGACUCUCUU (ssRNA) [Ic_S1_P4E.1_K4.1_C4.1_H4.1_A4.1_[A6C]_[T7G]_F4.1_[T8A]_[A9C]_T4.1]
- Kd: > 2300 nM

Binder: UCUCUUUGUAUUCAGUCUCUU (ssRNA) [Ic_S1_P4E.1_K4.1_C4.1_H4.1_A4.1_[A6T]_[T7C]_F4.1_[T8A]_[A9G]_T4.1]
- Kd: 642 nM

Binder: UCUCUUUGUAUCCUCUCUCUU (ssRNA) [Ic_S1_P4E.1_K4.1_C4.1_H4.1_A4.1_[A6C]_[T7C]_F4.1_[A9C]_T4.1]
- Kd: 67.2 nM

Binder: UCUCUUUGUAUCGGUUCUCUU (ssRNA) [Ic_S1_P4E.1_K4.1_C4.1_H4.1_A4.1_[A6C]_[T7G]_F4.1_[T8G]_[A9T]_T4.1]
- Kd: 938 nM

Binder: UCUCUUUGUAUUGUGUCUCUU (ssRNA) [Ic_S1_P4E.1_K4.1_C4.1_H4.1_A4.1_[A6T]_[T7G]_F4.1_[A9G]_T4.1]
- Kd: 40.2 nM

Binder: UCUCUUUGUAUCCAAUCUCUU (ssRNA) [Ic_S1_P4E.1_K4.1_C4.1_H4.1_A4.1_[A6C]_[T7C]_F4.1_[T8A]_T4.1]
- Kd: 1050 nM

Binder: UCUCUUUGUAUUCCUUCUCUU (ssRNA) [Ic_S1_P4E.1_K4.1_C4.1_H4.1_A4.1_[A6T]_[T7C]_F4.1_[T8C]_[A9T]_T4.1]
- Kd: 114 nM

Binder: UCUCUUUGUAUUUAUCUCUU (ssRNA) [Ia_S1_P3E.1_K3.1_C3.1_H3.1_A3.1_[A6T]_F3.1_T3.1]
- Kd: 36.2 nM

Binder: UCUCUUUGUAUCGAUUCUCUU (ssRNA) [Ic_S1_P4E.1_K4.1_C4.1_H4.1_A4.1_[A6C]_[T7G]_F4.1_[T8A]_[A9T]_T4.1]
- Kd: 581 nM

Binder: UCUCUUUGUAUCAGCUCUCUU (ssRNA) [Ic_S1_P4E.1_K4.1_C4.1_H4.1_A4.1_[A6C]_[T7A]_F4.1_[T8G]_[A9C]_T4.1]
- Kd: 606 nM

Binder: UCUCUUUGUAUUGCGUCUCUU (ssRNA) [Ic_S1_P4E.1_K4.1_C4.1_H4.1_A4.1_[A6T]_[T7G]_F4.1_[T8C]_[A9G]_T4.1]
- Kd: 926 nM

Binder: UCUCUUUGUAUUCUCUCUCUU (ssRNA) [Ic_S1_P4E.1_K4.1_C4.1_H4.1_A4.1_[A6T]_[T7C]_F4.1_[A9C]_T4.1]
- Kd: 38.5 nM

Binder: UCUCUUUGUAUCAGUUCUCUU (ssRNA) [Ic_S1_P4E.1_K4.1_C4.1_H4.1_A4.1_[A6C]_[T7A]_F4.1_[T8G]_[A9T]_T4.1]
- Kd: 316 nM

Binder: UCUCUUUGUAUUCUUUCUCUU (ssRNA) [Ic_S1_P4E.1_K4.1_C4.1_H4.1_A4.1_[A6T]_[T7C]_F4.1_[A9T]_T4.1]
- Kd: 27.1 nM

Binder: UCUCUUUGUAUCCGUUCUCUU (ssRNA) [Ic_S1_P4E.1_K4.1_C4.1_H4.1_A4.1_[A6C]_[T7C]_F4.1_[T8G]_[A9T]_T4.1]
- Kd: 1300 nM

— PMC9352680, “A comprehensive thermodynamic model for RNA binding by the Saccharomyces cerevisiae Pumilio protein PUF4”
